# Test results: US20200332005A1 (I MAB, published 2020)
# Where a chain is given by its changes, count along the chain named. Read-outs that look alike come from different tables or passages of the source.
# B1: Hu101-25 (antibody, V domains shown)
# VH: EVQLQESGPGLVKPSETLSLTCAVSGYSISSGYYWNWIRQPPGKGLEWIGYINYGGSNGYNPSLKSRVTISRDTSKNQFSLKLSSVTAADTAVYYCARDYDAYYEALDDWGQGTTVTVSS
# VL: EIVLSQSPATLSLSPGERATLSCRASSRVNYMHWYQQKPGQSPRPWISATSNLASGVPARFSGSGSGTSYTLTISSLEPEDFAVYYCQQWSSNPPTFGGGTKVEIK
# notes: also called humanized anti-CD73 antibody Hu101-25
# B2: Hu101-28 Fab (Fab, V domains shown)
# VH: B1 VH with S30T, G45K, I49M, V68I
# VL: B1 VL
# notes: also called test Fab; CD73 Fab
# B3: Hu101-28 (antibody, V domains shown)
# VH: B1 VH with S30T, G45K, I49M, V68I
# VL: B1 VL
# notes: also called humanized anti-CD73 antibody Hu101-28
# Assays:
# [1] = target: T1, recombinant human CD73 protein (human, UniProt P21589 27-547); experiment: SPR, Biacore T200, antibody captured by anti-human Fc IgG, antigen as analyte, 1:1 model, 25 C
# T1 construct: Bought (Novoprotein); also called recombinant CD73 protein; soluble CD73
# T1 sequence: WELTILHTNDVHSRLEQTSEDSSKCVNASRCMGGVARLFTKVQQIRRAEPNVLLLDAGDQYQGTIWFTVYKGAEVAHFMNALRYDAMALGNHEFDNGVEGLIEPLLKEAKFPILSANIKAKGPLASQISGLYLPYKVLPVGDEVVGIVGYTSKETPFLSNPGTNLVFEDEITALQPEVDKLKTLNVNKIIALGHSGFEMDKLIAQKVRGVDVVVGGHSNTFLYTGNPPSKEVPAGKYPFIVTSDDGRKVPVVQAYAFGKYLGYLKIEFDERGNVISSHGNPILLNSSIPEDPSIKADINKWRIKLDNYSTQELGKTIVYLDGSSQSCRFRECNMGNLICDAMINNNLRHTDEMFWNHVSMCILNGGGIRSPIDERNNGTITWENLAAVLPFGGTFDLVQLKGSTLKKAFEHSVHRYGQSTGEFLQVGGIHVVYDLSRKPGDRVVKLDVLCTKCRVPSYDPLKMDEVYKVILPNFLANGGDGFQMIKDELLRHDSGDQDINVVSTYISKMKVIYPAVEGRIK
# Procedure: For the binding assay, the Biacore T200 system was used through human antibody capture approach. The anti-human Fc lgG were immobilized on CMS sensor chip according to the manufactory's instruction. The test antibody was injected and captured by the immobilized anti-human Fc lgG. And then serial concentrations of antigen was individually injected, and the binding profile was recorded for each concentration antigen analyte, respectively. The assay system was regenerated by injection of 10 mM Glycine-HCl pH 1.5 for 30 seconds. The running buffer was HBS-EP+(10 mM HEPES, pH 7.4, 150 mM NaCl, 3 mM EDTA and 0.05% P20). The assay temperature was 25° C., and the association and dissociation time were 180 and 600 seconds, respectively.
# [2] = target: T1, recombinant human CD73 protein; experiment: cell-based or functional assay
# [3] = target: T2, human CD73 on the cell surface (human, UniProt P21589 27-549); experiment: cell-based or functional assay
# T2 sequence: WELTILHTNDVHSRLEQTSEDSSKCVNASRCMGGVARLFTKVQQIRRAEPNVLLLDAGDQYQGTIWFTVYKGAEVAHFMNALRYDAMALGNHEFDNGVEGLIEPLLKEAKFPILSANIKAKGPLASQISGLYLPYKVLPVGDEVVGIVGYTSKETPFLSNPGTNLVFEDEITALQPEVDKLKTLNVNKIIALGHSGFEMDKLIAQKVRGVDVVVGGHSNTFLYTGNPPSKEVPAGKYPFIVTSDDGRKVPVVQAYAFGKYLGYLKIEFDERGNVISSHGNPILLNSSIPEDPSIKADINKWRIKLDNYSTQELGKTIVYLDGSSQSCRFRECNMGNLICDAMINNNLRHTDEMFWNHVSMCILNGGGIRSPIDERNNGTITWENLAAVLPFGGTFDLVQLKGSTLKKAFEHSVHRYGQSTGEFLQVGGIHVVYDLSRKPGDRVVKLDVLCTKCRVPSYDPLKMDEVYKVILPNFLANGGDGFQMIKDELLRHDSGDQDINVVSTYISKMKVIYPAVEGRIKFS
# [4] = target: T2, human CD73 on the cell surface; experiment: flow cytometry on SK-OV-3 cells
# Procedure: Binding was measured using an FACSCanto (Becton-Dickinson), and the results are presented in FIG. 8 (see also the table below).
# [5] = target: T3, Y345A; experiment: high-throughput flow cytometry on cells expressing the CD73 variant
# T3 construct: also called CD73 variant Y345A
# T3 CD73 subunit: T2 sequence with Y319A
# Procedure: (§1) To identify the epitope of Hu101-28, a library of clones of single amino acid-mutated CD73 variants was made. Binding of Hu101-28 Fab to each variant in the library was determined, in duplicate, by high-throughput flow cytometry. For each CD73 variant, the mean binding value was plotted as a function of CD73 expression (represented by control reactivity) on chart and critical residues were identified from the chart. Critical residues for CD73 Fab binding (outlined in red) were identified as those whose mutations were negative for test Fab binding, but positive for the control MAbs. The mean binding reactivities (and ranges) are listed for the critical residues identified in the screens, and are shown in FIG. 23.
# [6] = target: T4, D399A; experiment: as above
# T4 construct: also called CD73 variant D399A
# T4 CD73 subunit: T2 sequence with D373A
# Procedure: as §1
# [7] = target: T5, R401A; experiment: as above
# T5 construct: also called CD73 variant R401A
# T5 CD73 subunit: T2 sequence with R375A
# Procedure: as §1
# [8] = target: T6, E400A; experiment: as above
# T6 construct: also called CD73 variant E400A
# T6 CD73 subunit: T2 sequence with E374A
# Procedure: as §1
# [9] = target: T3, Y345A; experiment: high-throughput flow cytometry on cells expressing the CD73 variant, in duplicate; mean (range)
# Procedure: as §1
# [10] = target: T4, D399A; experiment: as above
# Procedure: as §1
# [11] = target: T5, R401A; experiment: as above
# Procedure: as §1
# [12] = target: T6, E400A; experiment: as above
# Procedure: as §1
# [13] = target: T2, human CD73 on the cell surface; experiment: cell-based or functional assay; remark: listed apart in the source
# [14] = target: T1, recombinant human CD73 protein; experiment: cell-based or functional assay; remark: listed apart in the source
# [15] = target: cyno CD73 (cyno); experiment: plate binding assay read as OD 450 against Log (nM) of antibody; text: in vitro biochemical assay
# [16] = target: T1, recombinant human CD73 protein; experiment: as above
# [17] = target: C-terminal of CD73; experiment: plate binding assay, axis Binding activity (OD450) against Ab (µg/ml); panel Binding to C-terminal of CD73
# [18] = target: T1, recombinant human CD73 protein; experiment: ELISA, recombinant human CD73 at 2 ug/ml
# [19] = target: T2, human CD73 on the cell surface; experiment: flow cytometry on SK-OV-3 cells; remark: listed apart in the source
# Description: In the right panel, human ovarian carcinoma cell line (SK-OV-3) was stained with different concentrations of Hu101-28 and analyzed for surface binding by flow cytometry.
# [20] = target: cyno CD73 (cyno); experiment: cell-based or functional assay
# [21] = target: T1, recombinant human CD73 protein; experiment: cell-based or functional assay; remark: listed apart in the source
# Chain of C-terminal of CD73 (P21589 whole entry): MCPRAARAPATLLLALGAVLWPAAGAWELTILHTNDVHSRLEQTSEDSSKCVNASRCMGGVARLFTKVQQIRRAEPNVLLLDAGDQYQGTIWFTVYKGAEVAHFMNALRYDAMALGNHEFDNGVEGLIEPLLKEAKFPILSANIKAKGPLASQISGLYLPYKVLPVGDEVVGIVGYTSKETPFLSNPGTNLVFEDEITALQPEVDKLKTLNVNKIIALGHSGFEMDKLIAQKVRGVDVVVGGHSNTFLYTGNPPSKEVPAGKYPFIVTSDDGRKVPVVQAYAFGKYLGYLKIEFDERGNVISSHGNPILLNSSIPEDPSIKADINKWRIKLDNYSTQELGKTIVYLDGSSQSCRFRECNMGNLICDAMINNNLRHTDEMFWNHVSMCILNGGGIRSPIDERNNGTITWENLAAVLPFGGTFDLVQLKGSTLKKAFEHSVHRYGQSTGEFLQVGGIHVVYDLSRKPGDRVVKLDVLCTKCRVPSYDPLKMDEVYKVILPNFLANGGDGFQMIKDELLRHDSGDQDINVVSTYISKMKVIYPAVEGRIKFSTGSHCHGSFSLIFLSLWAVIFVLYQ
binder,measurement,setting,value
B1,Kd,[1],0.747 nM
same,koff,[1],5.51e-05 s⁻¹
same,kon,[1],73700 M⁻¹ s⁻¹
same,"IC50 (nM), inhibition of recombinant CD73 enzymatic activity",[2],4.72 nM
same,"IC50 (nM), inhibition of CD73 enzymatic activity on SK-OV-3 cells",[3],2.98 nM
same,EC50,[4],2.38 nM
B2,binding result,[5],no binding
same,binding result,[6],no binding
same,binding result,[7],no binding
same,binding result,[8],no binding
same,Binding Reactivity (% WT),[9],2.7 % WT
same,Binding Reactivity (% WT),[10],1.8 % WT
same,Binding Reactivity (% WT),[11],1.1 % WT
same,Binding Reactivity (% WT),[12],3.6 % WT
B3,Kd,[1],0.59 nM
same,koff,[1],3.47e-05 s⁻¹
same,kon,[1],58900 M⁻¹ s⁻¹
same,"IC50, inhibition of CD73 activity on MDA-MB-231 cells (CellTiter-Glo)",[13],8.21 nM
same,"IC50, inhibition of CD73 activity on SK-OV-3 cells (CellTiter-Glo)",[13],2.52 nM
same,"IC50, inhibition of recombinant human CD73 activity (CellTiter-Glo)",[14],2.84 nM
same,EC50,[15],0.44 nM
same,EC50,[16],0.09 nM
same,EC50 (read off the curve),[17],~0.02 µg/mL
same,"IC50 (nM), inhibition of recombinant CD73 enzymatic activity",[2],9.35 nM
same,EC50,[18],0.0887 nM
same,EC50,[19],0.67 nM
same,"IC50 (nM), inhibition of CD73 enzymatic activity on SK-OV-3 cells",[3],2.52 nM
same,"IC50, inhibition of CD73 enzyme activity (% of residual enzyme activity)",[20],2.22 nM
same,"IC50, inhibition of CD73 enzyme activity (% of residual enzyme activity)",[21],1.78 nM
same,EC50,[4],1.35 nM
